Patent US20260234261A1 (published 2026)
Like-named read-outs stand apart in the source and are kept apart here. Blank lines part the entries; values can stand above or below the binder they belong to.

How the values were obtained:
Assay in all cases: FACS binding
[1] = target: T1, human CTLA4 and human CCR8 co-expressed on CHOS-hCTLA4/hCCR8 double-positive cells (human, UniProt P16410 36-223; P51685 1-355)
[2] = target: T2, human CCR8 (overexpressed on CHOS-hCCR8 cells) (human, UniProt P51685 1-355)
T2 sequence (P51685 whole entry): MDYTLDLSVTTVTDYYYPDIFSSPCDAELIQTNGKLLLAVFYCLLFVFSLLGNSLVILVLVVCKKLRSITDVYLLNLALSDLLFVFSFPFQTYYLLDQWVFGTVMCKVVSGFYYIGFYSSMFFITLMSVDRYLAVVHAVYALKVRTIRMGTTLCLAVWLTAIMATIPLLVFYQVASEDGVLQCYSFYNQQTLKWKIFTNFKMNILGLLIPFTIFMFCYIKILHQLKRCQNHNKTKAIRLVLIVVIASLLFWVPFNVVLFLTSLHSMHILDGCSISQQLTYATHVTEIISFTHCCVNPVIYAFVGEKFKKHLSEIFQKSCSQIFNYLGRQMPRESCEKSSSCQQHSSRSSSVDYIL

[3] = target: T1, human CTLA4 and human CCR8 co-expressed …; remark: listed apart in the source
[4] = target: T2, human CCR8 (overexpressed on CHOS-hCCR8 …); remark: listed apart in the source
[5] = target: T1, human CTLA4 and human CCR8 co-expressed …; remark: listed apart in the source
[6] = target: T3, human CTLA4 (overexpressed on CHOS-hCTLA4 cells) (human, UniProt P16410 36-223)
T3 sequence (P16410 36-223): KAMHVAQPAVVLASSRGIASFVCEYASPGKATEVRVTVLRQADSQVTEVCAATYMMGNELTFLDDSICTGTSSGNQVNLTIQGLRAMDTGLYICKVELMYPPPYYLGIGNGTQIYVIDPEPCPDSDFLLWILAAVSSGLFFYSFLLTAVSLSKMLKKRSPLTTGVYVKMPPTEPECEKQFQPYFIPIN

[7] = target: T3, human CTLA4 (overexpressed on …); remark: listed apart in the source
[8] = target: T2, human CCR8 (overexpressed on CHOS-hCCR8 …); remark: listed apart in the source
[9] = target: T2, human CCR8 (overexpressed on CHOS-hCCR8 …); remark: listed apart in the source
[10] = target: T1, human CTLA4 and human CCR8 co-expressed …; remark: listed apart in the source
[11] = target: T3, human CTLA4 (overexpressed on …); remark: listed apart in the source

T1 sequence (P16410 36-223, chain 1 of 2): as the sequence (P16410 36-223) above
T1 sequence (P51685 whole entry, chain 2 of 2): as the sequence (P51685 whole entry) above

EC50 [2]: 0.743 nM | EC50 [3]: 0.351 nM | EC50 [4]: 0.215 nM | EC50 [5]: 0.194 nM
B2: Anti-CCR8(ADI68741)-1 (antibody, V domains shown)
VH: EVQLVQSGAEVKKPGASVKVSCKASGYTFTSYYMHWVRQAPGQGLEWMGIINPGTGSTSHAQKFQGRVTMTRDTSTSTVYMELSSLRSEDTAVYYCARDGAFRHKYFDLWGRGTLVTVSS
VL: EIVLTQSPATLSLSPGERATLSCRASQSVSSYLAWYQQKPGQAPRLLIYDASNRATGIPARFSGSGSGTDFTLTISSLEPEDFAVYYCQQYSAWPLTFGGGTKVEIKR

EC50 [1]: 0.623 nM | EC50 [6]: 0.521 nM
B4: ONC-392 Analog (antibody, V domains shown)
VH: QVQLQESGPGLVKPSETLSLTCTVSGFSLTSYGLSWIRQPPGKGLEWIGYIWYDGNTNFHSPLKSRVTISVDTSKNQFSLKLSSVTAADTAVYYCAKTEGHYYGSNYGYYALDYWGQGTLVTVSS
VL: DIQMTQSPSSLSASVGDRVTITCRASENIYSNLAWYQQKQGKAPKLLLYAATNLQDGVPSRFSGSGSGTDYTLTISSLQPEDFATYFCQHLWGTPYTFGQGTKLEIKR

EC50 [9]: 43.9 nM | EC50 [10]: 20.8 nM | EC50 [11]: 77.4 nM
B9: Anti-CTLA4(ip-05)×CCR8-4 (bispecific antibody)
heavy 1: not shown
light 1: not shown
heavy 2: not shown
light 2: EIVLTQSPATLSLSPGERATLSCRASQSVSSYLAWYQQKPGQAPRLLIYDASNRATGIPARFSGSGSGTDFTLTISSLEPEDFAVYYCQQYSAWPLTFGGGTKVEIKRTVAAPSVFIFPPSDEQLKSGRASVVCLLNNFYPREAKVQWKVDNALQSGNSQESVTEQDSKDSTYSLSSRLQLSKADYEKHKVYACEVTHQGLSSPVTKSFNRGEC

Continued, binder first:

B1: Anti-CCR8(ADI68741-R2-21-DA)-Afu (antibody, V domains shown)
VH: EVQLVQSGAEVKKPGASVKVSCKASGYTFTSYYMHWVRQAPGQGLEWMGIINPMTGSASHAQKFQGRVTMTRDTSTSTVYMELSSLRSEDTAVYYCVRDAAARHKYFAFWGRGTLVTVSS
VL: EIVLTQSPATLSLSPGERATLSCRASQSVSSYLAWYQQKPGQAPRLLIYDASNRATGIPARFSGSGSGTDFTLTISSLEPEDFAVYYCQQYSAWPLTFGGGTKVEIKR
EC50 [1]: 22.2 nM

B3: Anti-CCR8(ADI68741)-1 Afu (antibody, V domains shown)
VH: EVQLVQSGAEVKKPGASVKVSCKASGYTFTSYYMHWVRQAPGQGLEWMGIINPGTGSTSHAQKFQGRVTMTRDTSTSTVYMELSSLRSEDTAVYYCARDGAFRHKYFDLWGRGTLVTVSS
VL: EIVLTQSPATLSLSPGERATLSCRASQSVSSYLAWYQQKPGQAPRLLIYDASNRATGIPARFSGSGSGTDFTLTISSLEPEDFAVYYCQQYSAWPLTFGGGTKVEIKR
EC50 [1]: 0.595 nM

B5: Anti-CTLA4(ip-0508) (antibody, V domains shown)
VH: EVQLVESGGGVVQPGRSLRLSCAASGFTFSSYTMHWVRQAPGKGLEWVTFISEDGNNKYYADSVKGRFTISRDNSKNTLYLQMNSLRAEDTAIYYCARTGWLGPEDYWGQGTLVTVSS
VL: not shown
EC50 [5]: 361 nM

B6: Anti-CTLA4(ip-05)-1 (antibody, V domains shown)
VH: EVQLVESGGGVVQPGRSLRLSCAASGFTFSSYTMHWVRQAPGKGLEWVTFISEDGNNKYYADSVKGRFTISRDNSKNTLYLQMNSLRAEDTAIYYCARTGWLGPFDYWGQGTLVTVSS
VL: not shown
EC50 [3]: 11.8 nM | EC50 [7]: 3.6 nM

B7: Anti-CTLA4(ip-05)-1 Afu (antibody, V domains shown)
VH: EVQLVESGGGVVQPGRSLRLSCAASGFTFSSYTMHWVRQAPGKGLEWVTFISEDGNNKYYADSVKGRFTISRDNSKNTLYLQMNSLRAEDTAIYYCARTGWLGPFDYWGQGTLVTVSS
VL: not shown
EC50 [8]: 51.7 nM | EC50 [1]: 98.2 nM | EC50 [6]: 3.98 nM

B8: Anti-CTLA4(ip-05)×CCR8-6 (bispecific antibody)
heavy 1: not shown
light 1: not shown
heavy 2: not shown
light 2: EIVLTQSPATLSLSPGERATLSCRASQSVSSYLAWYQQKPGQAPRLLIYDASNRATGIPARFSGSGSGTDFTLTISSLEPEDFAVYYCQQYSAWPLTFGGGTKVEIKRTVAAPSVFIFPPSDEELKSGTASVQCLLNNFYPREAKVQWKVDNALQSGNSQESVTEQDSKDSTYSLSSELTLSKADYEKHKVYACEVTHQGLSSPVTKSFNRGEC
EC50 [9]: 6.55 nM | EC50 [10]: 11.3 nM | EC50 [11]: 28.2 nM
